Experiment [1] has as its target tumor-associated glycoprotein-72 (TAG-72), used as TAG-72-positive BSM (bovine submaxillary mucin, type-1-S, Sigma) (bovine). Kind of experiment: competitive ELISA, whole IgG, reference 3E8. In general terms: An ELISA detects its analyte on a solid surface through an enzyme-linked reagent.
Experiment [2] shares this target. Description: competitive ELISA, whole IgG expressed in animal cells, reference 3E8 whole IgG (FIG. 9).
Experiment [3] shares this target. Kind of experiment: competitive ELISA, whole IgG in COS7 culture supernatant.

By Kd is commonly meant the constant that tells how readily two partners part at equilibrium.

B1: humanized antibody 3E8/BSM22 (whole IgG form) (antibody, V domains shown)
VH: QVQLVQSGAEVKKPGASVKVSCKASGYTFTDHAIHWVRQAPGQRLEWMGYFSPGNDDFKYSQKFQGRVTITADKSASTAYMELSSLRSEDTAVYYCARSWIMQYWGQGTLVTVSS
VL: DIVMTQSPDSLAVSLGERATIHCKSSQSILYSSNNKNYLAWYQQKPGQPPKLLLYWASTREAGVPDRFSGGGSGTDFTLTISSLQPEDSATYYCQQYNTYPLTFGGGTKVEIK
On to B1, for which the fold higher antigen binding affinity than the 3E8 antibody in experiment [1] and in experiment [2] was 1.5 fold in each case. In experiment [3], this molecule gave a Kd of 0.45 nM.

These data come from patent US20080279847A1.
